In assay [1] the target is T1, CD20 (UniProt P11836 1-297, limits assumed).
T1 construct: whole, on cells; also called CD20 on CD20+ Ramos cells; antigen
T1 sequence (looked up): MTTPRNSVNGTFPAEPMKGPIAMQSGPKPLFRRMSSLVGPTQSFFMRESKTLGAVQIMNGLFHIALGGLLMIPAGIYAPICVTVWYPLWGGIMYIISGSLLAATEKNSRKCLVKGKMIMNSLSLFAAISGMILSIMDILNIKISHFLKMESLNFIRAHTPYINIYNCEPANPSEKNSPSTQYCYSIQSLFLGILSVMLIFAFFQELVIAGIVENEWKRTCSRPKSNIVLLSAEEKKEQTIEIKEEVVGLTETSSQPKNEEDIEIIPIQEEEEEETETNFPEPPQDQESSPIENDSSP
The assay can be described thus: FACS on CD20+ Ramos cells (FIG. 12 legend). Here is the method:
(§1) The specific binding to CD20 was detected by using CD20+ Ramos cell (ATCC) and T lymphocyte leukemia Jurkat cell (ATCC). Cells were incubated with various concentration of antibodies for 1 hour at 4° C. After washing with PBS for 3 times, 1:100 diluted FITC labeled anti-human Fc γ specific second antibody (The Jakson Laboratory) was added and incubated for 1 h at 4° C. After washing with PBS for three times, specific binding was analyzed by FACS instrument.

Assay [2] deals with T1, CD20. The assay can be described thus: FACS on CD20+ Ramos cells, FITC anti-human Fc gamma second antibody. On the procedure: as §1

B1: humanized anti-CD20 antibody 1635 (antibody, human IgG1, V domains shown)
VH: QVQLVQSGAEVKKPGASVKVSCKASGYTFTSYNMHWVRQAPGKGLEWIGAIYPGNGDTSYNQKFKGRVTITADKSTSTAYMELSSLRSEDTAVYYCARSTYYGGDWYFNVWGQGTTVTVSS
VL: DVVMTQSPAFLSVTPGEKVTITCRASSSVSYIHWFQQKPGKAPKPLIYATSNLASGVPSRFSGSGSGTDFTLTINSLEAEDAATYYCQQWTSNPPTFGGGTKVEIK
As for B1, the binding result in assay [1] is “binds”.

B2: humanized anti-CD20 antibody 3637 (antibody, human IgG1, V domains shown)
VH: QVQLVQSGAEVKKPGASVKVSCKASGYTFTSYTMHWVRQAPGKGLEWIGAIYPGNSDTNYNQKFKGRVTITADKSTSTAYMELSSLRSEDTAVYYCARSTYYGGDWNFEVWGQGTTVTVSS
VL: DVVMTQSPAFLSVTPGEKVTITCRASSSVSYIHWFQQKPGKAPKPLIYATSNLASGVPSRFSGSGSGTDFTLTINSLEAEDAATYYCQQWTSKPPTFGGGTKVEIK
notes: CDR-optimized variant (hVH-2 / hVK-2)
In the case of B2, the binding result in assay [1] is recorded as “binds”.

B3: humanized anti-CD20 antibody 1634 (antibody, human IgG1, V domains shown)
VH: QVQLVQSGAEVKKPGASVKVSCKASGYTFTSYNMHWVRQAPGKGLEWIGAIYPGNGDTSYNQKFKGRVTITADKSTSTAYMELSSLRSEDTAVYYCARSTYYGGDWYFNVWGQGTTVTVSS
VL: DVVMTQSPAFLSVTPGEKVTITCRASSSVSYIHWFQQKPGKAPKSLIYATSNLASGVPSRFSGSGSGTDFTLTINSLEAEDAATYYCQQWTSNPPTFGGGTKVEIK
B3: in assay [2], the binding result was “binds”.

B4: humanized anti-CD20 antibody 1534 (antibody, human IgG1, V domains shown)
VH: QVQLVQSGAEVKKPGASVKVSCKASGYTFTSYNMHWVRQPPGKGLEWIGAIYPGNGDTSYNQKFKGRVTITADESTSTAYMELSSLRSEDTAVYYCARSTYYGGDWYFNVWGQGTTVTVSS
VL: DVVMTQSPAFLSVTPGEKVTITCRASSSVSYIHWFQQKPGKAPKSLIYATSNLASGVPSRFSGSGSGTDFTLTINSLEAEDAATYYCQQWTSNPPTFGGGTKVEIK
In the case of B4, in assay [2], the binding result is reported as “binds”.

B5: humanized anti-CD20 antibody 1535 (antibody, human IgG1, V domains shown)
VH: QVQLVQSGAEVKKPGASVKVSCKASGYTFTSYNMHWVRQPPGKGLEWIGAIYPGNGDTSYNQKFKGRVTITADESTSTAYMELSSLRSEDTAVYYCARSTYYGGDWYFNVWGQGTTVTVSS
VL: DVVMTQSPAFLSVTPGEKVTITCRASSSVSYIHWFQQKPGKAPKPLIYATSNLASGVPSRFSGSGSGTDFTLTINSLEAEDAATYYCQQWTSNPPTFGGGTKVEIK
In the case of B5, in assay [2], the binding result is listed as “binds”.
